Among the data in patent US20140308301A1 are internalization of cell surface CD44 (reduction of MFI of Alexa647-conjugated RG7356 on CLL cells and median MFIR (MFI of CD44 mAb divided by MFI of control mAb) values, retold here.

A value given as a limit tells only on which side of the number the result lay.

For test [1], the target named is human CD44 (human) (UniProt P16070). Put plainly: cell-based or functional assay.
For test [2] the target is unchanged. Put plainly: flow cytometry, Alexa647-RG7356 on CD19+CD5+ CLL B cells (n=59). In general terms: A flow cytometer gives signals particle by particle.
Test [3] shares this target. Put plainly: flow cytometry, Alexa647-RG7356 on CLL B cells with ZAP-70 expression.
Test [4] shares this target. Put plainly: flow cytometry, Alexa647-RG7356 on CLL B cells with mutated IGVH gene.
Test [5] shares this target. Put plainly: flow cytometry, Alexa647-RG7356 on CLL B cells with unmutated IGVH gene.
Test [6] has the same target. Put plainly: flow cytometry, Alexa647-RG7356 on CD19+ normal B cells of healthy adults (n=8).
Test [7] shares this target. Put plainly: flow cytometry, Alexa647-RG7356 on CLL B cells with low or no ZAP-70 expression.

As for “humanized anti-CD44 monoclonal antibody (RG7356, Roche)”, the internalization of cell surface CD44 (reduction of MFI of Alexa647-conjugated RG7356 on CLL cells at 37 C, flow cytometry) with human CD44 (human) [1] is greater than 40%. In addition, the median MFIR (MFI of CD44 mAb divided by MFI of control mAb) with human CD44 (human) [2] is 132; in the test with human CD44 (human) [3] it was 161; with human CD44 (human) [4], 118; with human CD44 (human) [5], 161; in the test with human CD44 (human) [6] it was 112; with human CD44 (human) [7] it was 119.
